# Values quoted from earlier work as cited in paper PMC3478875.
# pKd: −log10 of the molar value. Read-outs that look alike come from different tables or passages of the source.
# Experiments:
# [1] = target: plasminogen (Homo sapiens) (UniProt P00747)
# [2] = target: Glu-plasminogen (Homo sapiens) (UniProt P00747)
# [3] = target: plasminogen (Homo sapiens) (UniProt P00747); remark: listed apart in the source
# plasmin (Homo sapiens) = plasmin (Homo sapiens) (UniProt P00747)
# [4] = target: plasminogen (Homo sapiens) (UniProt P00747); remark: listed apart in the source
# [5] = target: Lys-plasminogen (Homo sapiens) (UniProt P00747)
# [6] = target: Glu-plasminogen (Homo sapiens) (UniProt P00747); remark: listed apart in the source
substance,measurement,setting,value
"Fructose-1,6-bisphosphate aldolase (from UniProt P9WQA2)",pKd,[1],8.17
Outer surface protein A (OspA) (from UniProt Q09087),pKd,[2],3.59
GAPDH (from UniProt Q59906),pKd,[3],6.66
same,pKd,plasmin (Homo sapiens),7.60
DnaK (from UniProt B8DT62),pKd,[4],7.92
alpha-enolase (from UniProt P69949),pKd,[5],6.90
same,pKd,[6],8.80
